Reference: patent US20260078159A1 (CUGENE, published 2026)

What was measured:
human PD1 on cells [1] = biological target: T1, human PD1 on cells (human, UniProt Q15116 25-288); assay: cell-based or functional assay
[2] = biological target: T2, recombinant human PD1 protein (human, UniProt Q15116 25-170, limits assumed); assay: competition ELISA, PD1 coated, biotinylated human PD-L1-Fc at 0.5 µg/mL as competitor
Protocol: A non-targeting germline antibody, P-1260 (SEQ ID NOS: 171, 172 and 173) was included as the negative control. The binding ELISA procedures were outlined in Example 3. The competition ELISA followed a similar protocol. […] After 1-hour incubation at 37° C., HRP-conjugated Streptavidin (ThermoFisher) diluted to 0.1 μg/ml were added to the plate and incubate at 37° C. for 1 hour. The plate was subsequently developed using TMB (ThermoFisher) substrate. Absorbance readings were taken at 450 nm, with 630 nm as the reference wavelength. The half-maximal inhibitory concentrations (IC50) values were deduced using GraphPad Prism software.

[3] = biological target: T2, recombinant human PD1 protein; assay: binding ELISA, plate-coated recombinant human PD1
Protocol: Antibodies of the invention were tested for their antigen binding activity by well-known methods such as enzyme-linked immunosorbent assay (ELISA). Briefly, Nunc Maxisorp plates (ThermoFisher) were coated with recombinant human PD1 protein in bicarbonate buffer, pH 9.4 (ThermoFisher), overnight at 4° C., using 1 μg of antigen per well (100 μL/well). After triple washing with PBS/0.05% Tween 20, plates were incubated with SuperBlock (ThermoFisher) for two hours at room temperature to block nonspecific binding. The PD1 antibodies, serially diluted three-fold with blocking buffer (PBS with 1% bovine serum albumin) were added to the plates (100 μL/well) post washing and incubated at room temperature for one hour. After another washing, antibodies were detected by incubating with a horseradish peroxidase (HRP)-conjugated goat anti-human IgG Fc antibody (ThermoFisher) diluted 1:5000 in blocking buffer (100 μL/well) for one hour at room temperature. After a final wash, TMB substrate (ThermoFisher) at 100 μL/well was added. Plates were sealed and left to incubate in dark for 5-20 minutes. The reaction was stopped by adding 2N sulfuric acid (Ricca Chemical) (50 μL/well), and the absorbance was measured at 450 nm with a plate reader. The curves were plotted, and the half-maximal effective concentration (EC₅₀) values were calculated using GraphPad Prism software.

human PD1 on cells [4] = biological target: T1, human PD1 on cells; assay: flow cytometry on PD1+ HEK293 cells, % positive cells
Protocol: (§1) Additionally, HEK 293T cells stably expressing human PD1 gene (Crown Bioscience) was used to determine the cell-based binding strength of the optimized PD1 antibodies by flow cytometry. After harvesting, HEK293-hPD1 cells were seeded into a 96-well U-bottom plate at 1×10⁵ cells/well (100 μL), incubated with Fc block (1:50) for 20 minutes at 4° C., and subsequently washed with FACS buffer (PBS, 1% FBS). Cells were then treated with three-fold serial dilutions of each antibody at concentrations ranging from 0.01-100 nM in FACS buffer for 30 minutes at 4° C. Subsequently, cells were washed twice with FACS buffer to remove unbound molecules, and 40 µL of the 1:100 diluted PE-labeled goat anti-human Fc secondary antibody (eBiosciences) was added to the cells. Following a 30-minute incubation at 4° C. and another double wash with FACS buffer, antibodies bound to the cells were detected with PE-labeled secondary antibody by flow cytometry (BD ACCURI-C6), and EC₅₀ values were calculated using GraphPad Prism software.

human PD1 on cells [5] = biological target: T1, human PD1 on cells; assay: flow cytometry on PD1+ HEK293 cells, MFI
Protocol: as §1

T1 sequence (Q15116 25-288 limits assumed): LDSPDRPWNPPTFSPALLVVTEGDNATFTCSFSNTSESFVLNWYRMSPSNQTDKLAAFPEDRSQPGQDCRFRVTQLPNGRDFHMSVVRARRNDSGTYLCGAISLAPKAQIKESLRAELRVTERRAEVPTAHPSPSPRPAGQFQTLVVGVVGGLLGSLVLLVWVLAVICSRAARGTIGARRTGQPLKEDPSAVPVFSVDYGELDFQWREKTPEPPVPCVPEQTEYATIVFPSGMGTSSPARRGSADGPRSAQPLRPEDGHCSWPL
T2 sequence (Q15116 25-170 limits assumed): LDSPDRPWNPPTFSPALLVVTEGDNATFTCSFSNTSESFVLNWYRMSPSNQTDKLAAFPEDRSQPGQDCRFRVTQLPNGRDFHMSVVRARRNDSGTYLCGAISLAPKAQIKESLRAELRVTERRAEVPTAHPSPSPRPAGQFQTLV

Binder	PD1 blockade reporter assay EC50 (human PD1 on cells [1]) [nM]	IC50 [2] [nM]	EC50 [3] [nM]	EC50 (human PD1 on cells [4]) [nM]	EC50 (human PD1 on cells [5]) [nM]
P-1271 (antibody, human IgG1, kappa, V domains shown) VH: QVQLVQSGAEVKKPGASVKVSCKASGYTFTNYYMYWVRQAPGQGLEWMGGINPSNGGTNFAQKFQGRVTLTTDSSTSTAYMELSSLRSDDTAVYYCARRDYRFDMGFDYWGQGTLVTVSS VL: EIVLTQSPATLSLSPGERATLSCRASQGVSTSGYSYLHWYQQKPGQAPRLLIYLASYRESGVPARFSGSGSGTDFTLTISSLEPEDFAVYYCQHSRDLPLTFGGGTKVEIKR	0.66	1.42	0.0268		
P-1201 (antibody, human IgG1, kappa, V domains shown) VH: EVQLLESGGGLVQPGGSLRLSCAASGFTFTNYYMYWVRQAPGKGLEWVSGINPSNGGTNFADKFKGRFTLSTDSSKNTLYLQMNSLRAEDTAVYYCARRDYRFDMGFDYWGQGTLVTVSS VL: EIVLTQSPATLSLSPGERATLSCRASQGVSTSGYSYLHWYQQKPGQAPRLLIYLASYRESGVPARFSGSGSGTDFTLTISSLEPEDFAVYYCQHSRDLPLTFGGGTKVEIKR	1.28			0.033	0.159
P-1193 (antibody, human IgG1, kappa, V domains shown, Full-length IgG1 L234A/L235A/G237A, kappa) VH: EVQLLESGGGLVQPGGSLRLSCAASGFTFTNYYMYWVRQAPGKGLEWVSGINPSNGGTNFADKFKGRFTISRDNSKNTLYLQMNSLRAEDTAVYYCARRDYRFDMGFDYWGQGTLVTVSS VL: EIVLTQSPATLSLSPGERATLSCRASQGVSTSGYSYLHWYQQKPGQAPRLLIYLASYRESGVPARFSGSGSGTDFTLTISSLEPEDFAVYYCQHSRDLPLTFGGGTKVEIKR				0.07	0.259
P-1199 (antibody, human IgG1, kappa, V domains shown, Full-length IgG1 L234A/L235A/G237A, kappa) VH: EVQLLESGGGLVQPGGSLRLSCAASGFTFTNYYMYWVRQAPGKGLEWVSGINPSNGGTNFADKFKGRFTISTDSSKNTLYLQMNSLRAEDTAVYYCARRDYRFDMGFDYWGQGTLVTVSS VL: EIVLTQSPATLSLSPGERATLSCRASQGVSTSGYSYLHWYQQKPGQAPRLLIYLASYRESGVPARFSGSGSGTDFTLTISSLEPEDFAVYYCQHSRDLPLTFGGGTKVEIKR				0.016	0.12
